Four proteins from article doi:10.1101/2021.08.16.456468, “Positive and negative control of helicase recruitment at a bacterial chromosome origin” (bioRxiv, 2021) can be followed below.

The stoichiometry N is the number of molecules, sites or subunits per partner or assembly.

Data set [1] deals with the molecule itself. Nature of the data set: SEC-MALS; purified DnaD variants, size exclusion chromatography followed by multiple angle light scattering. (In general: SEC sorts molecules by how far they enter the pores of the column.)
Data set [2] concerns the molecule itself. Nature of the data set: cross-linking; amine-specific BS^3, SDS-PAGE, immunoblot. (In general: In western blotting, separated proteins are transferred to a membrane and probed.)

Changes are numbered by the printed parent chain. Names may count otherwise.

B1: DnaD, wild type, purified (natural protein, B. subtilis, UniProt P39787 1-232, looked up)
chain: MKKQQFIDMQEQGTSTIPNLLLTHYKQLGLNETELILLLKIKMHLEKGSYFPTPNQLQEGMSISVEECTNRLRMFIQKGFLFIEECEDQNGIKFEKYSLQPLWGKLYEYIQLAQNQTQERKAEGEQKSLYTIFEEEFARPLSPLECETLAIWQDQDQHDAQLIKHALKEAVLSGKLSFRYIDRILFEWKKNGLKTVEQAKIHSQKFRRVQAKQNEPQKEYKRQVPFYNWLEQ
notes: DnaD, Bacillus subtilis, the full-length protein; tetramer of about 113 kDa by SEC-MALS (theoretical 110 kDa); also called wild-type DnaD; wild-type tetrameric DnaD
For the protein B1, the “stoichiometry N” value in data set [1] worked out at 4.

B2: DnaD^K3A (natural protein, B. subtilis, UniProt P39787 1-232, looked up)
chain: B1 chain with K3A
notes: DnaD, Bacillus subtilis, with K3A, used in BS^3 cross-linking
As to B2, in data set [2], the “stoichiometry N” value was found to be 2.

B3: DnaD^F6A, purified (natural protein, B. subtilis, UniProt P39787 1-232, looked up)
chain: B1 chain with F6A
notes: DnaD, Bacillus subtilis, with F6A; eluted as a 57 kDa species (dimer); The measured mass fits the whole protein
B3: the “stoichiometry N” value in data set [1] stood at 2.

B4: DnaD^1-205, purified (domain or fragment, B. subtilis, UniProt P39787 1-205, looked up)
chain: MKKQQFIDMQEQGTSTIPNLLLTHYKQLGLNETELILLLKIKMHLEKGSYFPTPNQLQEGMSISVEECTNRLRMFIQKGFLFIEECEDQNGIKFEKYSLQPLWGKLYEYIQLAQNQTQERKAEGEQKSLYTIFEEEFARPLSPLECETLAIWQDQDQHDAQLIKHALKEAVLSGKLSFRYIDRILFEWKKNGLKTVEQAKIHSQK
notes: also called DnaD variant lacking the C-terminal tail
As for B4, the “stoichiometry N” value in data set [1] was determined as 4.
